Assays:
OsLHY [1] = target: T1, OsLHY (Oryza sativa, UniProt A0A0P0XBU0 1-719); assay: competition
OsNAC15 = target: T2, OsNAC15 (Oryza sativa, UniProt K9LKF1 1-301); assay: EMSA
T2 sequence: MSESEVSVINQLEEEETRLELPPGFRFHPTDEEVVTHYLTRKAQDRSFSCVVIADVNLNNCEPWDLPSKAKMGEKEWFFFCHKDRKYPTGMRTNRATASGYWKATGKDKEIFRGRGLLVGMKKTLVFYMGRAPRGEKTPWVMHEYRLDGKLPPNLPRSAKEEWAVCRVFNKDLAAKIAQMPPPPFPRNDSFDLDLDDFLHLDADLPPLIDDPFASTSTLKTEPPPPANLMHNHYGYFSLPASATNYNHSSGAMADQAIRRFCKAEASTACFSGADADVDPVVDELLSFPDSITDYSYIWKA

OsLHY [2] = target: T1, OsLHY; assay: EMSA
OsLHY [3] = target: T1, OsLHY; assay: competition; remark: listed apart in the source

T1 sequence (A0A0P0XBU0 whole entry): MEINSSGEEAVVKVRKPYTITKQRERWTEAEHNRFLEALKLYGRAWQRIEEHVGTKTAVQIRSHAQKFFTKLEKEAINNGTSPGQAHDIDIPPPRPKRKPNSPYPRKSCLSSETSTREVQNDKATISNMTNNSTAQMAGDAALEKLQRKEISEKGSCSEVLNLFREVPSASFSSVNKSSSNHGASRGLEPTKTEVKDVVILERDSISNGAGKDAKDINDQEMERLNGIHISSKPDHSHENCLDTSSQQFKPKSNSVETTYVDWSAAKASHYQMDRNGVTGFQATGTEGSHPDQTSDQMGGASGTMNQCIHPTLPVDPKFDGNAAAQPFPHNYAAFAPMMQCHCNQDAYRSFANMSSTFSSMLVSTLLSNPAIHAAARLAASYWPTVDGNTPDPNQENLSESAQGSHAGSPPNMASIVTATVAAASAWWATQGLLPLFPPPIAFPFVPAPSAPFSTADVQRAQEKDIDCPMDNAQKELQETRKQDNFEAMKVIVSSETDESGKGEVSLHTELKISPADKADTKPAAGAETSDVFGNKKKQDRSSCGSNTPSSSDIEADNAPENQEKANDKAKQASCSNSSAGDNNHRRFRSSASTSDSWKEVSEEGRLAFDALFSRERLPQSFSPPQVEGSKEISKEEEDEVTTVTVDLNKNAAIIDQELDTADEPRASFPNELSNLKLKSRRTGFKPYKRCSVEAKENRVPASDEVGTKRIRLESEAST

B1: OsLHY Cold probe, 3x AAGATATTT (dsDNA)
DNA 1: AAGATATTTAAGATATTTAAGATATTT
DNA 2: AAATATCTTAAATATCTTAAATATCTT
Question: Does B1 bind (OsLHY [1])?
Answer: binds

B2: OsNAC15 Bio-probe, 3x AGCAAGA (dsDNA)
DNA 1: AGCAAGAAGCAAGAAGCAAGA
DNA 2: TCTTGCTTCTTGCTTCTTGCT
Question: Does B2 bind (OsNAC15)?
Answer: binds

B3: OsLHY Bio-probe, 3x AAGATATTT (dsDNA)
DNA 1: AAGATATTTAAGATATTTAAGATATTT
DNA 2: AAATATCTTAAATATCTTAAATATCTT
Question: Does B3 bind (OsLHY [2])?
Answer: binds

B4: OsLHY mCold probe, 3x AAGGCGCCC (dsDNA)
DNA 1: AAGGCGCCCAAGGCGCCCAAGGCGCCC
DNA 2: GGGCGCCTTGGGCGCCTTGGGCGCCTT
Question: Does B4 bind (OsLHY [3])?
Answer: no binding
